Residue numbers refer to the chain shown, from its start. Names and notes keep the numbering of the source.

First the molecules themselves.
T1: human GFRα3 on HEK293/hGFRα3/hRET/SRE-luc cells (human, UniProt O60609 32-382)
T1 sequence: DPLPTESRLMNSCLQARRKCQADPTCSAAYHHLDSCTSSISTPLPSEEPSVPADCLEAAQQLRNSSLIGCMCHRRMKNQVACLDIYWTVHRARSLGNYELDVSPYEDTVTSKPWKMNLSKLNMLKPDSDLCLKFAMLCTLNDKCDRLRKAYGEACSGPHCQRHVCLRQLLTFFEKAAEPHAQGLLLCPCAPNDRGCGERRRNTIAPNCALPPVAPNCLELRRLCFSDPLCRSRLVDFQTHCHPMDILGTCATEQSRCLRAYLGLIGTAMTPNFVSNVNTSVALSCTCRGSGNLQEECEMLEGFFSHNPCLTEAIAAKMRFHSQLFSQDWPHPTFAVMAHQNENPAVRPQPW

T2: human GFRα3 expressed with a C-terminal mFc tag (human)
T2 construct: also called hGFRα3-mFc
T2 chain: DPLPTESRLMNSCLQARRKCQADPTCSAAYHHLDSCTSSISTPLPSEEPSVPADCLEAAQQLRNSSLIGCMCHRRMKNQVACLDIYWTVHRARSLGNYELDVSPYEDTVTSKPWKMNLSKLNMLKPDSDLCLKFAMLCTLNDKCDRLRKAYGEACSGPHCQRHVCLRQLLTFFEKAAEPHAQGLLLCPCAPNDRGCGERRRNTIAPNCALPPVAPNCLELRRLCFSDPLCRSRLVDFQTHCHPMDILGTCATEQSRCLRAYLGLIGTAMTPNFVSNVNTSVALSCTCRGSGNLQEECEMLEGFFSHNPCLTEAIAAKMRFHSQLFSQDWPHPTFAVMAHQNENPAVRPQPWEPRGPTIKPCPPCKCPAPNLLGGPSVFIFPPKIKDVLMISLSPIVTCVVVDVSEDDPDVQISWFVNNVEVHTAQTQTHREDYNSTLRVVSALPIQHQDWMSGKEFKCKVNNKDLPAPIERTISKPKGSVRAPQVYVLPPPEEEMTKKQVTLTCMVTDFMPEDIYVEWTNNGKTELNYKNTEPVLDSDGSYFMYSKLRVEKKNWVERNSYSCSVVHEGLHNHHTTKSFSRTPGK

B1: H4H2294S (antibody, human IgG4, V domains shown)
VH: EVQLVESGGGLVQPGGSLRLSCAASGFTFSSYAMSWVRQAPGKGLEWVSVISGSGGSTYYADAVKGRFTISRDNSKHTLYLQMNSLRAEDTAVYYCTKPSSYSSSNFYYGMDVWGQGSTVTVSS
VL: DIQLTQSPSSVSASVGDRVTITCRASQGISSWLAWYQQKPGKAPKLLIYAASSLQSGVPSRFSGSGSGTDFTLTISSLQPEDFATYYCQQTNSFPFPFGPGTKVDIK
notes: human IgG4 Fc (H4H)
B2: H4H2350P (antibody, human IgG4, V domains shown)
VH: QVQLQESGPGLVKPSETLSLTCTVSGGSISTYYWSWFRQPPGKGLEWIGYIYYSGSTNHNPSLKSRVTISVDTSKNQFSLKLRSVTAADTAVYYCARVGPVGWGSWGNFDYWGQGTLVTVSS
VL: DIQLTQSPSFLSASVGDRVTITCWASQGISSYLAWSQQKPGKAPKLLIYAASTLQSGVPSRFSGSGSGTEFTLTISSLQPEDFATYYCQQLNSYPWTFGQGTKVEIK
notes: human IgG4 Fc (H4H)
B3: H4H2345S (antibody, human IgG4, V domains shown)
VH: EVQLVESGGGLVRPGRSLRLSCAASGFTFDNYAMHWVRQVPGKGLEWVSGITWNSVSLGYADSVKGRFTISRDNAQNSLYLQMNSLRTVDTALYYCAKDRWGGSYYFDFWGQGTLVTVSS
VL: DIVMTQSPSSLSASVGDRVTITCRASQGISNYLAWYQQKPGKVPKLLIYSASTLQSGVPSRFSGSGSGTDFTLTISNLQPEDFATFFCQKYNSAPTFGGGTKVEIK
notes: human IgG4 Fc (H4H)
B4: H4H2364S (antibody, human IgG4, V domains shown)
VH: B1 VH with V12E, A33V, A40V, A63S, H77N, T97A, Y108H, S118T
VL: B1 VL with L4M, S9Y, K42R, Q90K, P97T, D105E
notes: human IgG4 Fc (H4H)
B5: H4H2344S (antibody, human IgG4, V domains shown)
VH: EVQLVESGGGVVQPGRSLRLSCAASGFSFSDYVMHWVRQAPGKGLEWVASIWFDGSNEFYADSVKGRFTISRDNSKNTLFLQMNSLRAEDTAVYYCAKKGVLVATSAFDIWGQGTMVTVSS
VL: DIQMTQSPSSLSASVGDRVTITCRASQSINNYLNWYHQKPGKAPKLLIYAASSLQSGVPSRFSGSGSGTDYTLTISSLQPEDFGNYYCQQSYRTSMYTFGQGTKVEIK
notes: human IgG4 Fc (H4H)
B6: H4H2354S (antibody, human IgG4, V domains shown)
VH: B5 VH with E1Q
VL: B5 VL with M4L
notes: human IgG4 Fc (H4H); also called H4H2354S-1
B7: H4H2346S (antibody, human IgG4, V domains shown)
VH: B5 VH with E1Q
VL: B5 VL with D1E, Q3V
notes: human IgG4 Fc (H4H)
B8: H4H2293P (antibody, human IgG4, V domains shown)
VH: B5 VH with E1Q, F59L, D109H
VL: B5 VL with D1A, S28N, K45N, R93S, V105L
notes: human IgG4 Fc (H4H)
B9: H4H2341S (antibody, human IgG4, V domains shown)
VH: EVQLVESGAEVKKSGSSVKVSCKASGGTFSRYAISWVRQAPGQGLEWMGGIIPLFGTLNYAQKFQGRVTLTTDESTSTAYMELSSLRSEDTAVYYCAVFYYGSGSYRNWFDPWGQGTLVTVSS
VL: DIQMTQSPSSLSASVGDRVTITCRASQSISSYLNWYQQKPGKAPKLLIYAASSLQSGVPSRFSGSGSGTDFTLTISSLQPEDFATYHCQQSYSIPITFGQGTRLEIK
notes: human IgG4 Fc (H4H)

T3 sequence (O60609 other isoform, or with tags, fused parts or gaps limits assumed): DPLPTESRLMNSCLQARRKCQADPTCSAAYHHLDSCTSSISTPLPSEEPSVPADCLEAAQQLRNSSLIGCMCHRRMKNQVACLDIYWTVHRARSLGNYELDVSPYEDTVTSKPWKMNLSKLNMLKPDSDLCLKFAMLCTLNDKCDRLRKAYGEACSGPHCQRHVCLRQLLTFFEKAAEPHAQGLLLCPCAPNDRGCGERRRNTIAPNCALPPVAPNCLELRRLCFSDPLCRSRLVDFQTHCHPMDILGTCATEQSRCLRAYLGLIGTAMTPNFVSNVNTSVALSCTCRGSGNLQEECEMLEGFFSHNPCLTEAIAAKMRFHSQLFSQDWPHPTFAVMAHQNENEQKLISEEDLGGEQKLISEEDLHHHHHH

One assay concerns the target T3, human GFRα3 expressed with a C-terminal myc-myc-hexahistidine tag (human, UniProt O60609 32-374, biotinylated (sites not given) in ELISA format 2 and in the Octet cross-competition; not in SPR).
T3 construct: also called hGFRα3-mmh; hGFRα3-mmH
The experiment in a line: Octet cross-competition; biotin-hGFRα3-mmH pre-saturated with first antibody H4H2291S. The protocol:
(§1) A cross-competition assay was conducted to assess the ability of select antibodies to compete with one another for binding to human GFRα3 using an Octet RED384 biosensor (Fortebio Inc.). The entire experiment was performed at 25° C. with the flow rate of 1000 rpm in Octet HBST buffer (0.01 M HEPES pH7.4, 0.15M NaCl, 3 mM EDTA, 0.05% v/v Surfactant P20, 0.1 mg/mL BSA). To assess whether 2 antibodies were able to compete with one another for binding to their respective epitopes on biotinylated recombinant human GFRα3 expressed with a C-terminal myc-myc-hexahistidine tag (biotin-hGFRα3-mmH; SEQ ID:370), around ˜1.2 nm of biotin-hGFRα3-mmH was first captured onto streptavidin-coated Octet sensor tips (Fortebio Inc, #18-5019) by submerging the tips for 1 minute into a 10 μg/mL solution of biotin-hGFRα3-mmH. The antigen coated sensor tips were then placed into wells containing 25 μg/mL solution of a first anti-GFRα3 monoclonal antibody for 4 minutes to saturate the biotin-hGFRα3-mmH surface. The sensor tips were then subsequently dipped into wells containing 25 μ/mL solution of a second anti-GFRα3 monoclonal antibody. The sensor tips were washed in Octet HBST buffer in between every step of the experiment. The real-time binding response was monitored during the course of the experiment and the binding response at the end of every step was recorded as shown in FIG. 9. The response of mAb-2 binding to biotin-hGFRα3-mmH pre-complexed with the first antibody was compared and competitive/non-competitive behavior of different anti-GFRα3 monoclonal antibodies was determined.
As to B1, the “binding response of second antibody (nm)” value is 0 nm.

Consider B2, for which the “binding response of second antibody (nm)” value was determined as 1.44 nm.

A further assay has as its target T1, human GFRα3 on …. The assay is described as follows: cell-based or functional assay.
As to B3, the “IC50 (SRE-luc, HEK293/hGFRα3/hRET cells, 100 pM hARTEMIN-mmH)” value came to 26 nM.

For B4, the “IC50 (SRE-luc, HEK293/hGFRα3/hRET cells, 100 pM hARTEMIN-mmH)” value is 2.3 nM.

B5: the “IC50 (SRE-luc, HEK293/hGFRα3/hRET cells, 100 pM hARTEMIN-mmH)” value came out at 48 nM.

Consider B6, for which the “IC50 (SRE-luc, HEK293/hGFRα3/hRET cells, 100 pM hARTEMIN-mmH)” value stood at 22 nM.

As to B7, the “IC50 (SRE-luc, HEK293/hGFRα3/hRET cells, 100 pM hARTEMIN-mmH)” value stood at 26 nM.

As for B8, the “IC50 (SRE-luc, HEK293/hGFRα3/hRET cells, 100 pM hARTEMIN-mmH)” value stood at 20 nM.

B9: the “IC50 (SRE-luc, HEK293/hGFRα3/hRET cells, 100 pM hARTEMIN-mmH)” value stood at 7.1 nM.

The target of another assay is T3, human GFRα3 expressed with a C-terminal …. The experiment in a line: Octet cross-competition; biotin-hGFRα3-mmH pre-saturated with first antibody H4H2292S. The procedure: as §1
B1: the “binding response of second antibody (nm)” value was 2.31 nm.

As for B2, the “binding response of second antibody (nm)” value was determined as 1.53 nm.

In a further assay the target is T2, human GFRα3 expressed with a C-terminal …. The experiment in a line: SPR, Ab captured, 37C. The protocol:
Antibodies were tested for binding to human GFRα3 expressed with either a C-terminal myc-myc-hexahistidine tag (hGFRα3-mmh; SEQ ID: 370, a C-terminal hFc tag (hGFRα3-hFc; SEQ ID:371), or a C-terminal mFc tag (hGFRα3-mFc; SEQ ID:372), as well as monkey GFRα3 expressed with a C-terminal myc-myc-hexahistidine tag (MfGFRα3-mmh; SEQ ID:373). Anti-GFRα3 antibodies were captured on either a goat anti-mouse IgG polyclonal antibody (GE Healthcare, #BR-1008-38) or a mouse anti-human IgG monoclonal antibody (GE Healthcare, #BR-1008-39) surface created through direct amine coupling to a Biacore CM5 sensor chip. Kinetic experiments were carried out using HBS-EP (10 mM HEPES, 150 mM NaCl, 3 mM EDTA, 0.05% Surfactant P20, at pH 7.4) or PBS buffer containing 0.05% v/v surfactant P20 as both the running buffer and the sample buffer. Binding to human GFRα3-mmh or monkey GFRα3-mmh was evaluated by injecting several concentrations ranging from 200 to 7.4 nM (3-fold dilutions) across the captured antibody surface. Binding to human GFRα3-mFc or human GFRα3-hFc was evaluated by injecting several concentrations ranging from 100 to 3.7 nM (3-fold dilutions) across the captured antibody surface. Antibody-antigen association was monitored for up to 4 minutes, while dissociation in buffer was monitored for up to 20 minutes. Kinetic association (kₐ) and dissociation (kd) rate constants were determined by processing and fitting the data to a 1:1 binding model using Scrubber 2.0c curve fitting software. Binding dissociation equilibrium constants (KD) and dissociative half-lives (t_{1/2}) were calculated from the kinetic rate constants as: KD (M)=kd/kₐ and t_{1/2} (min)=[ln 2/(60*kd)].
On to B3, for which the Kd was 0.106 nM, the dissociation rate constant (koff) was found to be 7.44e-05 s⁻¹, the kon worked out at 700000 M⁻¹ s⁻¹ and the t1/2 was 2.58 h.

Molecule B1 had a Kd of 0.0209 nM, a koff of 3.46e-05 s⁻¹, a kon of 1.66e+06 M⁻¹ s⁻¹ and a t1/2 of 5.57 h.

On to B4, for which the Kd came to 0.0328 nM, the koff turned out to be 4.14e-05 s⁻¹, the kon amounted to 1.26e+06 M⁻¹ s⁻¹ and the t1/2 turned out to be 4.65 h.

Regarding B2, the Kd came out at 0.0492 nM, the koff is 0.000126 s⁻¹, the kon was found to be 2.56e+06 M⁻¹ s⁻¹ and the t1/2 stood at 1.53 h.

In turn, B5 showed a Kd of 0.0891 nM, a koff of 8.96e-05 s⁻¹, a kon of 1.01e+06 M⁻¹ s⁻¹ and a t1/2 of 2.15 h.

On to B6, for which the affinity, expressed as Kd, was 0.0895 nM; the koff was 9.11e-05 s⁻¹; the kon is 1.02e+06 M⁻¹ s⁻¹; the t1/2 came to 2.12 h.

In turn, B7 displayed a Kd of 0.0781 nM, a koff of 0.000137 s⁻¹, a kon of 1.75e+06 M⁻¹ s⁻¹ and a t1/2 of 1.4 h.

B8 yielded a Kd of 0.0299 nM, a koff of 5.13e-05 s⁻¹, a kon of 1.71e+06 M⁻¹ s⁻¹ and a t1/2 of 3.75 h.

Regarding B9, binding was put at a Kd of 0.0789 nM, the koff turned out to be 7.58e-05 s⁻¹, the kon turned out to be 961000 M⁻¹ s⁻¹ and the t1/2 was determined as 2.53 h.

A further assay concerns the target T3, human GFRα3 expressed with a C-terminal …. The experiment in a line: Octet cross-competition; biotin-hGFRα3-mmH pre-saturated with first antibody H4H2350P. The protocol: as §1
B1: the “binding response of second antibody (nm)” value came to 2 nm.

As for B2, the “binding response of second antibody (nm)” value is 0.25 nm.

These data come from patent US20140056903A1 (Regeneron, published 2014).
